Reference: the supplement of paper PMC9170038

Test system: MS2 coat protein
Test: apparent KD of MS2 coat protein; designed switch direction (-1 OFF switch, 1 ON switch): -1; higher = weaker reporter binding
How it was run: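 An oligonucleotide input, 200 uM small-molecule ligand, or no input was present during titration of SNAP-549-labelled MS2 coat protein, which was doubled from 0.7 or 1.5 nM to 3 µM. Designed RNA switches had been transcribed on Illumina chips by stalled E. coli RNA polymerase. Apparent KD per design is the median over clusters of curves fitted to normalised cluster fluorescence.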

[1] = input ligand: microRNA oligo, concentration not stated
[2] = Eterna round: R95, input ligand: microRNA oligo, concentration not stated
[3] = Eterna round: R95, input ligand: FMN 200 uM
[4] = Eterna round: R95, input ligand: none

Sequence | apparent KD of MS2 coat protein (input ligand: FMN 200 uM) [µM] | apparent KD of MS2 coat protein (input ligand: none) [µM] | apparent KD of MS2 coat protein [1] [µM] | apparent KD of MS2 coat protein [2] [µM] | apparent KD of MS2 coat protein [3] [µM] | apparent KD of MS2 coat protein [4] [µM]
AAUUAGUGAGGAUAUACUAACAGUGGUAGUAGAUAGUGGAUGUAGAAGGCACAUGAGGAUCACCCAUGUUAUAA [EX4 #52] (Eterna round: R97, puzzle: Exclusion 4) | 0.026 | 0.0437 | – | – | – | –
UUUGUUUAUGUAGGAUAUGCCUGGCGUGCCUUUGCAGAAGGACAUGAGGAUCACCCAUGUAUUGCGGUCUGCGUUCAGAUCGCU [salish99_ExNG1_r4_037] (Eterna round: R96, puzzle: Exclusion NG 1) | 0.0371 | 0.0348 | 0.0268 | – | – | –
CCCGCAGGUUUUUUGCUCGACAUGAGGAUCACCCAUGUUGCGUGGGUUGUGUGUGUGCGGUGUAUAUAUAUGGUCCU [-24.5, -48 kcal, A 14%] (Eterna round: R97, puzzle: Sensor, turn-off variant 1) | 0.305 | 0.371 | – | – | – | –
AACCUGAGGCAAAGCUUUAGGUGUACAUGAGGAUCACCCAUGUAGGAUAUGGUAGGCAAAGCUUACCAGAAGGACAUUAUGAUA [Mat - Exclusion NG 3 - Mod of JL - D52] (Eterna round: R96, puzzle: Exclusion NG 3) | 0.0669 | 0.0531 | 0.044 | – | – | –
AGGUCCUUCUGGAGACAUGAGGAUCACCCAUGUCGGGUCAGCGAGGAUAUCGGUCAAUAAUGUGACGAGAAGGCGCGGACCGAU [Ex NG3 #57] (Eterna round: R96, puzzle: Exclusion NG 3) | 0.0555 | 0.0199 | 0.0171 | – | – | –
CCCUCACAUGAGGAUCACCCAUGUCAGGAUAUCUCAGUACGUCCACACGGACGCACCAAGAGAAGGGACAAAGC [Veara] (Eterna round: R97, puzzle: Exclusion 1) | 0.0322 | 0.02 | – | – | – | –
GUUAACGCAGGAUAUUAGUACAUGCACAUGAGGAUCACCCAUGUUUAGUGGGUCUAGGAAUAAGAAGGGCGAUGAA [EX5 #21] (Eterna round: R97, puzzle: Exclusion 5) | 0.21 | 0.227 | – | – | – | –
CCUCAGUCACAGGAUAUGCUCAUCUAAUGAUGAGCAGAAGGGUGAACAUGAGGAUCACCCAUGUUUACGGUGGU [Omei Ex6 E8] (Eterna round: R97, puzzle: Exclusion 6) | 0.122 | 0.328 | – | – | – | –
CCUAGGUUAGGAUAUCUCGAUGUGGCAAAGGGUCCAUAUCGGGAGAAGGAACAUGAGGAUCACCCAUGUGGAGC [Eternabot (Original) Solution 42] (Eterna round: R97, puzzle: Exclusion 4) | 0.159 | 0.057 | – | – | – | –
AAUAACAGAGGAUAUACUAUUUUAUGUGUUUGUUGUUUUGAACAUGAGGAUCACCCAUGUAGAAGGCUGAAUAA [JMF 26] (puzzle: Exclusion 2) | – | – | – | 0.0221 | – | –
AAUAAUGAGAAGGAUAUCACUAGCGAUAGCUAGUGAGAAGGUCUCACAUGAGGAUCACCCAUGUGUUCCAAUAA [Mod1 Ex6/6-A4 by Brourd] (Eterna round: R97, puzzle: Exclusion 6) | 0.417 | 0.221 | – | – | – | –
GUUUCGAGACGGAGAUCCGACAUGAGGAUCACCCAUGUCUCACAAGCUUUUUGCUCGUCUUAUACUCCUCUGUUCUC [Elimod 48 - Jieux - Sensor, turn-off variant 1] (Eterna round: R97, puzzle: Sensor, turn-off variant 1) | 0.0156 | 0.0177 | – | – | – | –
AAAGAACAUGAGGAUCACCCAUGUUAGGAUAUAGUAGCAGUGUAUCUAAAGACAGCAGCUAGAAGGAGCAUGAG [Eternabot (Original) Solution 46] (Eterna round: R97, puzzle: Exclusion 1) | 0.0774 | 0.0743 | – | – | – | –
AAUAAUAAACAAGCUUUUUACAUGAGGAUCACCCAUGUCCUCUGCUCGUCUUAUCUUGGGCUUUUUUUGGGUUCGGG [-16.4, -45 kcal, A 21%] (Eterna round: R97, puzzle: Sensor, turn-off variant 1) | 0.813 | 0.891 | – | – | – | –
UAUUAGCAAGCUAGAUCCCACAUGAGGAUCACCCAUGUGCUCGUCUUAUAAGGUACUGUGACGAAAGUCACGGUACC [Sensor 3, v1 - 96] (puzzle: Sensor v3, turn-off variant 1) | – | – | – | 0.798 | 0.0568 | 0.0575
AAUAUGUGAGGAUAUCAGGUGUGCUAGCGUACUGGUACAUCUGAGAAGGCACAUGAGGAUCACCCAUGUAUCUU [Mat - Exclusion 4 - Mod of JL - D45] (puzzle: Exclusion 4) | – | – | – | 0.0243 | – | –
GUAAAAAAAAAGGAUAUCGAACUUAUUAUUUAACGAGAAGGAUGAACAUGAGGAUCACCCAUGUGGUAUCAUGG [test] (puzzle: Exclusion 6) | – | – | – | 0.143 | 0.0923 | 0.213

Sequence | apparent KD of MS2 coat protein (input ligand: FMN 200 uM) [µM] | apparent KD of MS2 coat protein (input ligand: none) [µM] | apparent KD of MS2 coat protein [1] [µM] | apparent KD of MS2 coat protein [2] [µM] | apparent KD of MS2 coat protein [3] [µM] | apparent KD of MS2 coat protein [4] [µM]
GGCCCACAUGAGGAUCACCCAUGUGAGGAUAUGUUAGUUUCGGCGAAAGCCGAAAUUAACAGAAGGCACAGGCC [JR_Exclusion1_Sub022] (puzzle: Exclusion 1) | – | – | – | 0.0108 | – | –
UACACUGCAUGAGGAUCAAACAUGAGGAUCACCCAUGUAUAGCAGGCUUUUUGUCCGUCUUAUAAUUAUGUAGUGUA [Electric Eye 17 - Jieux - Sensor, turn-off variant 1] (Eterna round: R97, puzzle: Sensor, turn-off variant 1) | 0.0173 | 0.015 | – | – | – | –
GCACUGACAGGAUAUACAUGAGGAUCACCCAUGUGACCCUUAAAGUACUCGCGUACAAGUAGAAGGGUCUGUGC [Omei Ex3 Model Bachelor's Dilema v30] (Eterna round: R97, puzzle: Exclusion 3) | 0.398 | 0.0667 | – | – | – | –
UCCAAGACAGGAUAUCUAGAGCCAAACAUGAGGAUCACCCAUGUGAAUCUCAGCAAACGCAGAGAAGGGUCAAAAU [Orisinxe] (puzzle: Exclusion 5) | – | – | – | 0.0232 | 0.0301 | 0.0309
ACAUGACUGCUAGGAUAUAGAUGACAUGAGGAUCACCCAUGUUGUCCCAUGUUUAUGGAAACGGACUAGAAGGAGCAGCAUAUG [Ex NG2 #12] (Eterna round: R96, puzzle: Exclusion NG 2) | 0.0257 | 0.0302 | 0.0248 | – | – | –
AACUAGGCAGGAUAUACAUGAGGAUCACCCAUGUGCCAAUACAAAGGGACUAACAGAGGUAGAAGGGCCUAGAA [ChP 13.04.2015 #2] (puzzle: Exclusion 3) | – | – | – | 0.0368 | 0.155 | 0.0343
GUCCUCUUGACAUGAGGAUCACCCAUGUAUUAUUUGUUAACUGAGGAUAUACUCUUAUUUUUUAUGUAGAAGGCAGAUUUGUUC [JR_ExcNG3_Sub022] (Eterna round: R96, puzzle: Exclusion NG 3) | – | – | 0.0321 | – | – | –
GGCCUUCCGCAAGCUUUUUACAUGAGGAUCACCCAUGUGAUUUUUAGUCUUAUGCCCGGGCCCGUGUGGGCCCGGGC [-34.8, -55.6, A 14%] (Eterna round: R97, puzzle: Sensor, turn-off variant 1) | 0.0234 | 0.0231 | – | – | – | –
UUUAAUUUUUUUUUUUUACAAGCUUUUUGCUCGUCUUAUACAUGAGGAUCACCCAUGUAAAUGGAAGGUAAAUUAUC [JMF 67] (puzzle: Sensor v3, turn-off variant 2) | – | – | – | 0.0173 | 0.0155 | 0.0135
UUUUCGUAAGGAUAUGGUUAGAUCUACGAAAGUAGAUCUAACCAGAAGGUACAUGAGGAUCACCCAUGUUGGUA [Mod of Brourd 22 - Jieux - Exclusion 4] (Eterna round: R97, puzzle: Exclusion 4) | 0.0798 | 0.0299 | – | – | – | –
GGUCCGCAUGUCAGGAUAUACAUAUGGAUCAUAGAGUAGAAGGGACUUGAGGAUCACCCAAGUAACAAAAGAAG [Tiantere] (Eterna round: R97, puzzle: Brourd's mod of Exclusion 4) | 0.0601 | 0.0213 | – | – | – | –
UUUUACCGAGGAUAUACAUAUAAAUAAUAAUCCUCAUUAUUACAUGAGGAUCACCCAUGUAGAAGGCGGAUUUU [Mat - Exclusion 2 - Mod of Hog - D88] (puzzle: Exclusion 2) | – | – | – | 0.0963 | – | –
AGUCAGGCGGUAGGAUAUCCAUAUCGAGUGACCCUUUCAUAACAUGAGGAUCACCCAUGUCGGUGGGAGAAGGGCCGUAAGGCA [Mat - Exclusion NG 2 - Mod of JL - D69] (Eterna round: R96, puzzle: Exclusion NG 2) | 0.0536 | 0.0411 | 0.0305 | – | – | –
UAUGGUUAAGUCAGGAUAUGCACGAAGAGAUCAAUGCAGAAGGGACAUGAGGAUCACCCAUGUAAAGUCGUGUU [Ex4 #74] (Eterna round: R97, puzzle: Brourd's mod of Exclusion 4) | 0.0551 | 0.0277 | – | – | – | –
CCAUCGUGUGUGAGGAUAUGCUGGUCCUUGGAUCAGCAGAAGGCACAUGAGGAUCACCCAUGUGAAAACGGUGG [Mat - Exclusion 4 - JL Mod - D86] (puzzle: Brourd's mod of Exclusion 4) | – | – | – | 0.0223 | 0.067 | 0.0239
UUUUGGCAUGUAGGAUAUGGGUCCGAUUAGGAUUUAGAAGGACAUGAGGAUCACCCAUGUGCACUUAAUUGGUCUUUUUUUUUU [EXclNG1-LROPPY16] (Eterna round: R96, puzzle: Exclusion NG 1) | 0.0377 | 0.0365 | 0.0235 | – | – | –
